{
  "source": "patent US20260092100A1",
  "about": "(ICOSAVAX, published 2026)",
  "binders": {"B1": {"name": "13E10 hIgG1 (antibody, V domains shown)", "VH": "EVKLVESGGGLVQPGGSLSLSCAASGFTFTDYYMNWVRQPPGKALEWLGFIRNKDNGYTTEYSASVKGRFTISRDNSQSILYLQMNALRAEDSATYYCTRYYFGYDGDYFDYWGQGTTLTVSS", "VL": "EIVLTQSPTTMAASPGEKITITCSASSSISSNYLHWYQQKAGFSPKLLIYRTSNLASGVPARFSGSGSGTSYSLTIGTMEAEDVATYYCQQGSSLPRTFGGGTKLEIKR", "notes": "Recombinant form with human IgG1 Fc"}, "B2": {"name": "42C2 hIgG1 (antibody, V domains shown)", "VH": "QVTLKESGPGILQPSQTLSLTCSFSGFSLSTFGMGVVWTRQPSGKGLEWLAHIWWDDDNYYNPALKSRLTISKDTSKNQVFLKIANADTADTATYYCARIVKVLEQYFDVWGTGTTVTVSS", "VL": "DIMMTQSHKFMSTSVGDRVIFTCKASQDVGTAVAWYQQKSGQSPKLLIYWASTRHTGVPDRFTGSGSGTDFTLTISNVQSEDLADYFCQQYTSYPLTFGAGTKLELKR", "notes": "as for B1"}, "B3": {"name": "13E10 (mouse) (antibody, V domains shown)", "VH": "B1 VH", "VL": "EIVLTQSPTTMAASPGEKITITCSASSSISSNYLHWYQQKAGFSPKLLIYRTSNLASGVPARFSGSGSGTSYSLTIGTMEAEDVATYYCQQGSSLPRTFGGGTKLEIK", "notes": "Mouse IgG1 / kappa; also called 13E10 mIgG"}, "B4": {"name": "17E10 (antibody, mouse IgG1, V domains shown)", "VH": "QVQLQQPGAELVKPGASVKMSCKASGYTFTSYWITWVKQRPGQGLEWIGDIYPGSGSITYNEKFKTKATLTVDTSSSTAYMQLNSLTSEDSAVYYCAGLLRLTFDVWGTGTTVTVSS", "VL": "DIQLTQTTSSLSASLGDRVTISCRASQDISNYLNWYQQKPDGTVKLLISYTSGLHSGVPSRFSGSGSGTDYSLTISNLEQEDIATYFCQQGNTLPWTFGGGTKLEIK"}, "B5": {"name": "17D10 (mouse) (antibody, V domains shown)", "VH": "B4 VH", "VL": "B4 VL", "notes": "Mouse IgG1 / kappa; also called Mouse 17D10 mAB; 17D10 mIgG"}, "B6": {"name": "42C2 (mouse) (antibody, V domains shown)", "VH": "B2 VH", "VL": "DIMMTQSHKFMSTSVGDRVIFTCKASQDVGTAVAWYQQKSGQSPKLLIYWASTRHTGVPDRFTGSGSGTDFTLTISNVQSEDLADYFCQQYTSYPLTFGAGTKLELK", "notes": "Mouse IgG1 / kappa; also called 42C2 mIgG; 42C2 mAB"}, "B7": {"name": "17D10 hIgG1 (antibody, V domains shown)", "VH": "B4 VH", "VL": "DIQLTQTTSSLSASLGDRVTISCRASQDISNYLNWYQQKPDGTVKLLISYTSGLHSGVPSRFSGSGSGTDYSLTISNLEQEDIATYFCQQGNTLPWTFGGGTKLEIKR", "notes": "Recombinant form with human IgG1 Fc; also called Human 17D10 mAB; 171D10 hIgG1"}},
  "data": [
    {"target": "T1, hMPV033 antigen (ectodomain 1-472 of the UT-A CL-28 hMPV F mutant fused to I53-50A) (human metapneumovirus, A strain)", "T1 construct": "A 6-Gly linker replaces the F1/F2 cleavage site; The stabilising mutations T127C, N153C, A185P, V231I, L219K, G294E, T365C and V463C are already in the entry; A GS linker and I53-50A follow; also called hMPV033 F protein; I53-50A-hMPV033", "T1 chain": "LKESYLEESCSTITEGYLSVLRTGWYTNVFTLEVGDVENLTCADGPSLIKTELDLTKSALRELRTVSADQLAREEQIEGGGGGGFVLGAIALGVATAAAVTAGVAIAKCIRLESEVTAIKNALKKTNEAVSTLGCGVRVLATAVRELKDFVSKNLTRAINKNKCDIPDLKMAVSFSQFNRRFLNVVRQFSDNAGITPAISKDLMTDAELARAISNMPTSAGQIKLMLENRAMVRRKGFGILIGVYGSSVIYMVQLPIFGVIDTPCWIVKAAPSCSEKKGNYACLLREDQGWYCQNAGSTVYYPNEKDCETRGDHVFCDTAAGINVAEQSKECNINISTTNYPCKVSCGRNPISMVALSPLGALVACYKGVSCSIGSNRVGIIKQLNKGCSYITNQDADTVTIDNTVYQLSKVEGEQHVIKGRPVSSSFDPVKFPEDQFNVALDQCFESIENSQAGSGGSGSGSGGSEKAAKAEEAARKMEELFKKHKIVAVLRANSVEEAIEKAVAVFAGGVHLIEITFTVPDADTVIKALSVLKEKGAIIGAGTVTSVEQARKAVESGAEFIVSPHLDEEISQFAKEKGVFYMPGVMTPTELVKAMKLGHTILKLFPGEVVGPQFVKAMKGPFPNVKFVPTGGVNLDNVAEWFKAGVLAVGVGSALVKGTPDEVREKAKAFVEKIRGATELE", "assay": "summary of characterisation", "values": [
      {"binder": "B1", "binding result": "binds"},
      {"binder": "B2", "binding result": "binds"}
    ]},
    {"target": "T2, hMPV F protein on hMPV/A virus (human metapneumovirus, subtype A, UniProt Q6WB98 19-539)", "assay": "cell-based or functional assay", "units": {"hMPV/A neutralization assay titer, supernatant": "log2"}, "values": [
      {"binder": "B3", "hMPV/A neutralization assay titer, supernatant": "> 5"},
      {"binder": "B4", "hMPV/A neutralization assay titer, supernatant": "> 5"},
      {"binder": "B5", "hMPV/A neutralization assay titer, supernatant": "> 5"},
      {"binder": "B6", "hMPV/A neutralization assay titer, supernatant": "> 5"}
    ]},
    {"target": "T3, DS-Cav1 (RSV control) (UniProt P03420 26-513)", "T3 construct": "also called RSV F protein; RSV F", "assay": "Octet biolayer interferometry, bottom panel titled 'anti-DS-Cav1-CompA specificity'; format and concentrations not given", "values": [
      {"binder": "B6", "binding result": "no binding"},
      {"binder": "B2", "binding result": "no binding"}
    ]},
    {"target": "T2, hMPV F protein on hMPV/A virus", "assay": "cell-based or functional assay", "remark": "another data set of the same source", "units": {"IC50, final serum dilution": "µg/mL", "IC50, original serum dilution": "µg/mL", "hMPV/A RL Bx Titer (Log 2), microneutralization assay": "log2"}, "values": [
      {"binder": "B3", "IC50, final serum dilution": 0.195, "IC50, original serum dilution": 0.781, "hMPV/A RL Bx Titer (Log 2), microneutralization assay": 8},
      {"binder": "B1", "IC50, final serum dilution": 0.0977, "IC50, original serum dilution": 0.391, "hMPV/A RL Bx Titer (Log 2), microneutralization assay": 9},
      {"binder": "B7", "IC50, final serum dilution": 0.0345, "IC50, original serum dilution": 0.138, "hMPV/A RL Bx Titer (Log 2), microneutralization assay": 10.5},
      {"binder": "B5", "IC50, final serum dilution": 0.0488, "IC50, original serum dilution": 0.195, "hMPV/A RL Bx Titer (Log 2), microneutralization assay": 10},
      {"binder": "B6", "IC50, final serum dilution": 0.0977, "IC50, original serum dilution": 0.391, "hMPV/A RL Bx Titer (Log 2), microneutralization assay": 9},
      {"binder": "B2", "IC50, final serum dilution": 0.0691, "IC50, original serum dilution": 0.276, "hMPV/A RL Bx Titer (Log 2), microneutralization assay": 9.5}
    ]},
    {"target": "T3, DS-Cav1 (RSV control)", "assay": "Octet biolayer interferometry, bottom panel titled 'anti-DS-Cav1-CompA specificity'; format and concentrations not given", "remark": "another data set of the same source", "values": [
      {"binder": "B3", "binding result": "no binding"},
      {"binder": "B1", "binding result": "no binding"}
    ]},
    {"target": "T3, DS-Cav1 (RSV control)", "assay": "Octet biolayer interferometry, bottom panel titled 'anti-DS-Cav1-dn5B specificity'; format and concentrations not given", "values": [
      {"binder": "B7", "binding result": "no binding"},
      {"binder": "B5", "binding result": "no binding"}
    ]},
    {"target": "T1, hMPV033 antigen (ectodomain 1-472 of …)", "assay": "Octet biolayer interferometry: mouse antibody captured on Protein G biosensors, CompA-hMPV033 (panel title 'Pre Fusion hMPV-F') at 10 µg/mL in solution, 120 s association and 120 s dissociation", "values": [
      {"binder": "B3", "binding result": "binds"},
      {"binder": "B5", "binding result": "binds"},
      {"binder": "B6", "binding result": "binds"}
    ]},
    {"target": "T1, hMPV033 antigen (ectodomain 1-472 of …)", "assay": "BLI (Octet)", "values": [
      {"binder": "B7", "binding result": "binds"}
    ]}
  ]
}
